Measured values as given in publication PMC4418518 (2015).
Where two headings read alike, the source gives them in different places.

Key:
Assay in all cases: co-sedimentation
F-actin [1] = target: T1, F-actin (Saccharomyces cerevisiae, UniProt P60010)
F-actin [2] = target: T1, F-actin; remark: listed apart in the source
actin = actin (Saccharomyces cerevisiae, UniProt P60010)

Kd (F-actin [1]): 1310 nM | Kd (F-actin [2]): 1480 nM | Kd (actin): 370 nM
B1: Vinculin tail (VT) 881-1066 (protein)
chain: KDEEFPEQKAGEAINQPMMMAARQLHDEARKWSSKPVTVINEAAEAGVDIDEEDDADVEFSLPSDIEDDYEPELLLMPTNQPVNQPILAAAQSLHREATKWSSKGNDIIAAAKRMALLMAEMSRLVRGGSGNKRALIQCAKDIAKASDEVTRLAKEVAKQCTDKRIRTNLLQVCERIPTISTQLKI
